Results reported in PMC4661877, “Enhancement of Chaperone Activity of Plant-Specific Thioredoxin through γ-Ray Mediated Conformational Change” (International Journal of Molecular Sciences, 2015).

Target: the molecule itself
Assay: SEC; Superdex 200 10/300 GL, FPLC, 4 °C, 50 mM HEPES pH 8.0, 100 mM NaCl, 0.5 mL/min; size against standard proteins

B1: Arabidopsis thaliana tetratricopeptide domain-containing thioredoxin (AtTDX), non-irradiated (enzyme, UniProt Q8VWG7 1-380, looked up)
chain: MVDAIQVAELRRFVEQLKLNPSILHDPSLVFFKEYLRSLGAQVPKIEKTERDYEDKAETKPSFSPKHDDDDDDIMESDVELDNSDVVEPDNEPPQPMGDPTAEVTDENRDDAQSEKSKAMEAISDGRFDEAIEHLTKAVMLNPTSAILYATRASVFLKVKKPNAAIRDANVALQFNSDSAKGYKSRGMAKAMLGQWEEAAADLHVASKLDYDEEIGTMLKKVEPNAKRIEEHRRKYQRLRKEKELQRAERERRKQQEAQEREAQAALNDGEVISIHSTSELEAKTKAAKKASRLLILYFTATWCGPCRYMSPLYSNLATQHSRVVFLKVDIDKANDVAASWNISSVPTFCFIRDGKEVDKVVGADKGSLEQKIAQHSSSK
notes: AtTDX, Arabidopsis thaliana tetratricopeptide domain-containing thioredoxin; 380 amino acids, 42 kDa; three TPR domains at the amino terminus and a thioredoxin domain at the carboxyl terminus; Mixture of LMW (mainly tetrameric) and HMW forms; also called non-irradiated AtTDX; 0 kGy
- stoichiometry N: 4
